For the assay, the target named is T1, p75^NTR (Mus musculus, UniProt Q9Z0W1).
T1 construct: endogenous in cells; host or cells: murine plasmacytoid dendritic cells differentiated in vitro from bone marrow with Flt3-L (p75NTR+/+ wildtype; p75NTR-/- as control)
T1 sequence (Q9Z0W1 32-427): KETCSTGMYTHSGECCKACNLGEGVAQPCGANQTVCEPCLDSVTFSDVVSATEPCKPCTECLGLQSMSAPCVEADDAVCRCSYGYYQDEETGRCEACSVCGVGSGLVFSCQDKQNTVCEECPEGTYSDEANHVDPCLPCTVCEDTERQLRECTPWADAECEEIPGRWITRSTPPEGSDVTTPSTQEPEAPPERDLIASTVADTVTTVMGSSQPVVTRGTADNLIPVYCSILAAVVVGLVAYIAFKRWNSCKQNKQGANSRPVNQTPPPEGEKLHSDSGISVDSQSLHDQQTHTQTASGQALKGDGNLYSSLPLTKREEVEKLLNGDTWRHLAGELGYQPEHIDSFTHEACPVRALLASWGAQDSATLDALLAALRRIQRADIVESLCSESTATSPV
Nature of the assay: Cytokine secretion and TLR9 expression of CpG stimulated murine PDCs. The class given is cell-based. As to the method: Murine PDC were generated in vitro as follows: Bone marrow cells were isolated by flushing femur and tibia of mice. Erythrocytes were lysed using ACK buffer. Remaining cells were washed and cultured at a density of 2×10^6 cells per ml in RPMI 1640 medium supplemented with 10% FCS, 1 mM sodium pyruvat, 2 mM L-glutamine, 100 IU per ml penicillin, 100 μg/ml streptomycin, 10 mM HEPES buffer and 0.1 mM β-mercaptoethanol. To differentiate bone marrow cells into PDCs, 100 ng/ml Flt3-L (fms-like tyrosine kinase 3-ligand) was added to the cells. After 8 days of culture PDCs were enriched by removing the CD11b^+ fraction using CD11b Microbeads (Miltenyi Biotec) according to manufacturer instructions. Dead cells were excluded using Dead cell removal Kit (Miltenyi Biotec). Purity of PDCs was evaluated by flow cytometry (CD11b^−CD11c^+B220^+Siglec-H^+).
Murine PDC express the low affinity neurotrophin receptor p75^NTR but not the high affinity neurotrophin receptors (FIGS. 3A, 3B). […] Furthermore, only p75^NTR expressing PDC (p75^NTR+/+) increased the CPG-ODNs Class B induced secretion of the Th2 response inducing cytokines IL-6 and TNFα in the presence of NGF (FIG. 3D).

Entries after “also recorded” stand apart in the source; their conditions may differ.

On to “NGF: Nerve growth factor, best characterized neurotrophin; natural p75^NTR agonist (R&D Systems)”, for which, for the setting “CPG-ODNs Class A (CpG A) stimulated p75^NTR+/+ PDCs, increasing NGF levels”, the IFNα secretion result is “decreasing levels; also recorded: reduced”. Besides, the “expression of TLR9” value (CpG A stimulated p75^NTR+/+ PDCs, NGF added) is “reduced expression; also recorded: negatively influenced”. Also, the “CPG-ODNs Class B induced secretion of IL-6 and TNFα” value (p75^NTR+/+ PDC in presence of NGF) was “increased”. The “CpG-induced increase in TLR9 expression level” value (p75^NTR+/+ PDCs, CpG A or CpG B, presence of NGF) is reported as “significantly decreased”. Also, under “p75^NTR−/− PDCs, CpG A or CpG B stimulation, NGF added”, the “TLR9 expression of p75^NTR−/− PDCs” value is listed as “does not display a NGF induced alteration of TLR9 expression; also recorded: showed now difference in TLR9 expression”.

For the origin of these results see patent US20190381169A1, “PHARMACEUTICAL COMBINATIONS FOR IMMUNOTHERAPY” (Technische Universitat Dresden, priority 2014, published 2019).
